# Reference: paper PMC2119678 (The Journal of Cell Biology, 1993)
# Target: actin from rabbit skeletal muscle (F actin) (rabbit, UniProt P68135 1-377)
# Assay: co-sedimentation
binder,measurement,value
transgelin (natural protein) MANKGPSYGMSREVQSKIEKKYDEELEERLVEWIVVQCGPDVGRPDRGRLGFQVWLKNGVILSKLVNSLYPDGSKPVKVPENPPSMVFKQMEQVAQFLKAAEDYGVTKTDMFQTVDLFEGKDLAAVQRTLMALGSLAVTKNDGHYRGDPNWFMKKAQEHKREFTESQLQEGKHVIGLQMGSNRGASQLAGHSILPRLPHTQPCSSFSPGQASRLRH,stoichiometry N,6 actin monomers per transgelin
